Literature values in EP4471063A1, “ANTIBODY AGAINST HER3, CONJUGATE AND USE THEREOF” (priority 2022, dated 2023).

Legend:
[1] = multicenter clinical studies
[2] = once every three weeks, five administrations, 0, 3, 10, 30 mg/kg

Substance: Patritumab Deruxtecan
- thrombocytopenia as treatment emergent adverse event (TEAE) [1]: 30%
- body weight (at all doses): no significant abnormality
- toxic target organs (cynomolgus monkey, in vivo): thymus, bone marrow, and skin
- dose at which a decrease in reticulocytes, lymphocytes, and platelets was observed [2]: ≥ 3 mg/kg
- dose at which transferases increased [2]: ≥ 10 mg/kg
